Source: US9296810 (Novartis, dated 2016)
Where a chain is given by its changes, count along the chain named.

B1: SEQ ID NO 87 (designed binder)
chain: VSDVPRDLEVVAATPTSLLISWDAPAVTVRYYRITYGEAYGESYQEFTVPGSKSTATISQSPEYVDYTITVYAVTGRGESPASSKPISINYASEY
B2: SEQ ID NO 88 (designed binder)
chain: VSDVPRDLEVVAATPTSLLISWDAPAVTVRYYRITYGESSSSRRQEFTVPGSKSTATISGEESYVDYTITVYAVTGRGESPASSKPISINYAEER
B3: SEQ ID NO 89 (designed binder)
chain: VSDVPRDLEVVAATPTSLLISWDAPAVTVRYYRITYGEGRHPSYQEFTVPGSKSTATISPSYSRVDYTITVYAVTGRGESPASSKPISINYSRER
B4: SEQ ID NO 90 (designed binder)
chain: VSDVPRDLEVVAATPTSLLISWDAPAVTVRYYRITYGEGERPYQEFTVPGSKSTATISYAHYSVDYTITVYAVTGRGESPASSKPISINYERRS
B5: SEQ ID NO 95 (designed binder)
chain: VSDVPRDLEVVAATPTSLLISWDAPAVTVRYYRITYGEYEYARQEFTVPGSKSTATISRLYRRVDYTITVYAVTGRGESPASSKPISINYYRSA
B6: SEQ ID NO 91 (designed binder)
chain: VSDVPRDLEVVAATPTSLLISWDAPAVTVRYYRITYGEYQRSRQEFTVPGSKSTATISSYGGYVDYTITVYAVTGRGESPASSKPISINYRSLR
B7: SEQ ID NO 92 (designed binder)
chain: B5 chain with Y41R, A42Y, R59S, L60Q, Y61S, R63Y, Y91G, S93P
B8: SEQ ID NO 96 (designed binder)
chain: B6 chain with Q40H, R41Y, R43E, S59Y, G61E, G62P, Y63R, R91H, L93S
B9: SEQ ID NO 97 (designed binder)
chain: B5 chain with Y39Q, E40R, A42L, R59S, L60R, Y61S, R62A, Y91P, R92Y
B10: SEQ ID NO 93 (designed binder)
chain: B4 chain with G39Y, E40P, P42E, Y59R, A60Y, H61G, S63H, E91S, R92G, R93Y
B11: SEQ ID NO 94 (designed binder)
chain: VSDVPRDLEVVAATPTSLLISWDAPAVTVRYYRITYGEYEHYYQEFTVPGSKSTATISPYAGGVDYTITVYAVTGRGESPASSKPISINYSESE
B12: SEQ ID NO 98 (designed binder)
chain: VSDVPRDLEVVAATPTSLLISWDAPAVTVRYYRITYGERSSRSQEFTVPGSKSTATISHSREPVDYTITVYAVTGRGESPASSKPISINYQYRY
B13: SEQ ID NO 106 (designed binder)
chain: B12 chain with R39S, S40G, S41Y, S43Y, H59G, S60Y, P63H, Y92E, R93S
B14: SEQ ID NO 99 (designed binder)
chain: B12 chain with R39S, S40Q, R42H, S60P, R61S, E62R, Q91P, Y92R, R93S, Y94E
B15: SEQ ID NO 100 (designed binder)
chain: VSDVPRDLEVVAATPTSLLISWDAPAVTVRYYRITYGEEEEHPQEFTVPGSKSTATISSPQRGVDYTITVYAVTGRGESPASSKPISINYYSYY
B16: SEQ ID NO 101 (designed binder)
chain: B12 chain with R39E, S43P, H59Q, S60A, E62A, P63R, Q91R, Y92R, R93Y, Y94R
B17: SEQ ID NO 102 (designed binder)
chain: B15 chain with E39Y, E40G, E41A, H42L, P43E, S59R, P60S, R62A, G63E, Y91A
B18: SEQ ID NO 103 (designed binder)
chain: VSDVPRDLEVVAATPTSLLISWDAPAVTVRYYRITYGESREGGQEFTVPGSKSTATISSYQSEVDYTITVYAVTGRGESPASSKPISINYARSR
B19: SEQ ID NO 104 (designed binder)
chain: B18 chain with S39G, R40Q, E41Q, S59A, Q61R, S62G, E63P, A91Y, R92G, R94Y
B20: SEQ ID NO 105 (designed binder)
chain: B18 chain with S39G, E41R, G42Y, S59E, Y60L, Q61L, A91S, R92L, S93R, R94Y
B21: SEQ ID NO 107 (designed binder)
chain: B15 chain with E39S, E40G, E41R, H42R, P43G, Q61S, R62L, G63E, Y91R, Y93G
B22: SEQ ID NO 108 (designed binder)
chain: B4 chain with G39P, E40R, P42R, Y59P, A60G, H61G, Y62Q, E91G, R93G, S94Y
B23: SEQ ID NO 109 (designed binder)
chain: VSDVPRDLEVVAATTTSLLISWDAPAVTVRYYRITYGESGRGAQEFTVPGSKSTATISGLGPPVDYTITVYAVTGRGESPASSKPISINYRSQH
B24: SEQ ID NO 110 (designed binder)
chain: VSDVPRDLEVVAATPTSLLISWDAPAVTVRYYRITYGESSGYAERGQEFTVPGSKSTATISSPGARVDYTITVYAVTGRGESPASSKPISINYSSLG
B25: SEQ ID NO 111 (designed binder)
chain: VSDVPRDLEVVAATPTSLLISWDAPAVTVRYYRITYGESEGGSSRSQEFTVPGSKSTATISRSYQPVDYTITVYAVTGRGESPASSKPISINYGSYP
B26: SEQ ID NO 112 (designed binder)
chain: VSDVPRDLEVVAATPTSLLISWDAPAVTVRYYRITYGEQYYHQGRRQEFTVPGSKSTATISRYGGSVDYTITVYAVTGRGESPASSKPISINYYAYG
B27: SEQ ID NO 113 (designed binder)
chain: VSDVPRDLEVVAATPTSLLISWDAPAVTVRYYRITYGERRGQYGSSQEFTVPGSKSTATISSPEGSVDYTITVYAVTGRGESPASSKPISINYSRSE
B28: SEQ ID NO 114 (designed binder)
chain: VSDVPRDLEVVAATPTSLLISWDAPAVTVRYYRITYGEQRYSYYGQQEFTVPGSKSTATISSGRSSVDYTITVYAVTGRGESPASSKPISINYRRSY
B29: SEQ ID NO 115 (designed binder)
chain: B28 chain with Q39R, R40P, Y41A, Y44R, G45A, Q46A, G63Y, R64S, S65Y, Y97G
B30: SEQ ID NO 116 (designed binder)
chain: VSDVPRDLEVVAATPTSLLISWDAPTVTVRYYRITYGEPQASHRPYQEFTVPGSKSTATISSRSQSVDYTITVYAVTGRGESPASSKPISINYLREL
B31: SEQ ID NO 43 (designed binder)
chain: VSDVPRDLEVVAATPTSLLISWDAPAVTVRYYRITYGEEAYRSEGQEFTVPGSKSTATISSYGQGVDYTITVYAVTGRGESPASSKPISINYEGSE
B32: SEQ ID NO 44 (designed binder)
chain: VSDVPRDLEVVAATPTSLLISWDAPAVTVRYYRITYGESSLGSEQEFTVPGSKSTATISEYAPYVDYTITVYAVTGRGESPASSKPISINYYGPG
B33: SEQ ID NO 45 (designed binder)
chain: VSDVPRDLEVVAATPTSLLISWDAPAVTVRYYRITYGEQAQEEGQEFTVPDSKSTATISAHRSYVDYTITVYAVTGRGESPASSKPISINYYYGE
B34: SEQ ID NO 46 (designed binder)
chain: VSDVPRDLEVVAATPTSLLISWDAPAVTVRYYRITYGEYRSYRSERQEFTVPGSKSTATISRGYRAVDYTITVYAVTGRGESPASSKPISINYSYRY
B35: SEQ ID NO 47 (designed binder)
chain: VSDVPRDLEVVAATPTSLLISWDAPAVTVRYYRITYGEERGYERSRQEFTVPGSKSTATISESYRYVDYTITVYAVTGRGESPASSKPISINYPHSY
B36: SEQ ID NO 48 (designed binder)
chain: VSDVPRDLEVVAATPTSLLISWDAPAVTVRYYRITYGEQSGLSEHQEFTVPGSKSTATISSLRYYVDYTITVYAVTGRGESPASSKPISINYAYEY
B37: SEQ ID NO 49 (designed binder)
chain: VSDVPRDLEVVAATPTSLLISWDAPAVTVRYYRITYGERGSEAERQEFTVPGSKSTATISQAYYGVDYTITVYAVTGRGESPASSKPISINYSYAS
B38: SEQ ID NO 50 (designed binder)
chain: VSDVPRDLEVVAATPTSLLISWDAPAVTVRYYRITYGESLYYHQEFTVPGSKSTATISASYYAVDYTITVYAVTGRGESPASSKPISINYSYHL
B39: SEQ ID NO 52 (designed binder)
chain: VSDVPRDLEVVAATPTSLLISWDAPAVTVRYYRITYGESSRSPRGQEFTVPGSKSTATISRAEYRVDYTITVYAVTGRGESPASSKPISINYYLRQ
B40: SEQ ID NO 53 (designed binder)
chain: B39 chain with R41P, S42E, P43Y, R61L, A62E, R65E, A83T, Y93Q, L94Y, Q96Y
B41: SEQ ID NO 54 (designed binder)
chain: VSDVPRDLEVVAATPTSLLISWDAPAVTVRYYRITYGESLRSREGQEFTVPGSKSTATISGRQESVDYTITVYAVTGRGESPASSKPISINYGQRY

Each binder was assayed against T1, hen egg white lysozyme (hen, UniProt P00698 19-147, biotinylated (HEL-b); sites not stated) (assay: yeast display selection).
T1 construct: also called lyzozyme; HEL-b (biotinylated)
T1 sequence (P00698 19-147 limits assumed): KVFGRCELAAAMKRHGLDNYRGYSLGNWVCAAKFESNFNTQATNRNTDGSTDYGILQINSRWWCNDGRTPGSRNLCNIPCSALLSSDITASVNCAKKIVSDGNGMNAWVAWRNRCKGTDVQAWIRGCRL

Binding result, binds:
B1
B2
B3
B4
B5
B6
B7
B8
B9
B10
B11
B12
B13
B14
B15
B16
B17
B18
B19
B20
B21
B22
B23
B24
B25
B26
B27
B28
B29
B30
B31
B32
B33
B34
B35
B36
B37
B38
B39
B40
B41
